Data: patent publication US20230149558A1, “DUOCARMYCIN DERIVATIVE AND USE THEREOF” (The University of Tokyo, priority 2020, published 2023)

Columns and labels:
[1] = tested on: CEACAM5-negative DLD1 cells; assay: In vitro cytotoxicity test using CEA-V2122 and anticancer agent-labeled modified biotin (Cell Counting Kit-8); format: cell-based, human; conditions: complex of CEA-V2122 and Compound 5, molar ratio 1:2; 1.0E-11 to 6.0E-07 final molar concentration; 48 hours; FIG. 8
Description: (§1) A cytotoxicity test was carried out using an anticancer agent-labeled modified biotin. The anticancer agent-labeled modified biotin is a compound described as Compound 5. For the assay, first, CEACAM5-positive MKN45 cells and CEACAM5-negative DLD1 cells were seeded on a 96-well plate for cell culture, so that the cell count became 5×10^3 cells/well and the amount of the culture solution became 50 μL/well, and thereafter, the cells were cultured overnight. A solution containing a complex of CEA-V2122 and a […] modified biotin was prepared by mixing CEA-V2122 and Compound 5 to a molar ratio of 1:2, and then incubating the mixture at room temperature for 10 minutes. […]
(§2) To the cells that had been cultured overnight, the complex serial dilution solutions were added in an amount of 50 μL/well to each well of the plate to the final molar concentration (1.0E-11, 3.0E-11, 9.1E-11, 2.7E-10, 8.2E-10, 2.5E-09, 7.4E-09, 2.2E-08, 6.7E-08, 2.0E-07, and 6.0E-07). […] The dosage and administration were determined by the instruction manuals included with the kit, and after the addition of the reagent, the mixture was incubated for 1.5 hours at 37° C. in a CO2 incubator. Thereafter, the absorbance at 450 nm was measured, and a mean value was then calculated, followed by background collection. […]

[2] = tested on: CEACAM5-positive MKN45 cells; assay: as above; format: cell-based, human; conditions: complex of CEA-V2122 and Compound 5, molar ratio 1:2; 1.0E-11 to 6.0E-07 final molar concentration; 48 hours; FIG. 8
Description: as §1, §2

HeLa S3 cells = assay: Cytotoxicity of Duocarmycin SA and Duocarmycin SA-Valine (Cell Counting Kit-8); format: cell-based; conditions: 1.0E-11 to 6.0E-07, 48 hours, FIG. 11
Description: In order to confirm the activities of Compound X (Duocarmycin SA) and Compound Y (Duocarmycin SA-Valin) shown in FIG. 9 and FIG. 10, cytotoxicity was confirmed using HeLa S3 cells.
The cells were seeded on a 96-well plate for cell culture, so that the cell count became 5×10^3 cells/well and the amount of the culture solution became 50 μL/well, and thereafter, the cells were cultured overnight. The concentration of Compound X or Compound Y was adjusted with a culture solution, so that the final concentration thereof became 600 nM. […]
The medium used in the overnight culture of the cells was exchanged with the prepared agent-diluted solution, and the cells were then cultured for 48 hours. […] The dosage and administration applied in the assay were determined in accordance with the instruction manuals included with the kit, and after addition of the reagent, the mixture was incubated for 1.5 hours at 37° C., in a CO2 incubator. Thereafter, the absorbance at 450 nm was measured, and a mean value was then calculated, followed by background collection. The control was set to be 100%, and the ratio of the cell growth under each condition to the control was calculated. […]

[3] = molecular target: T1, Recombinant Human CEACAM-5/CD66e Protein, CF (R & D SYSTEMS) (human, UniProt P06731 35-685); assay: SPR, Biacore T200; CEACAM5 immobilized on CM5 chip, CEA-V2122 as analyte; single-cycle kinetics, bivalent analysis fit, KD=kd1/ka1
T1 construct: Bought recombinant protein, immobilized on a CM5 chip by amine coupling (279 RU); also called antigen CEACAM5
T1 sequence (looked up): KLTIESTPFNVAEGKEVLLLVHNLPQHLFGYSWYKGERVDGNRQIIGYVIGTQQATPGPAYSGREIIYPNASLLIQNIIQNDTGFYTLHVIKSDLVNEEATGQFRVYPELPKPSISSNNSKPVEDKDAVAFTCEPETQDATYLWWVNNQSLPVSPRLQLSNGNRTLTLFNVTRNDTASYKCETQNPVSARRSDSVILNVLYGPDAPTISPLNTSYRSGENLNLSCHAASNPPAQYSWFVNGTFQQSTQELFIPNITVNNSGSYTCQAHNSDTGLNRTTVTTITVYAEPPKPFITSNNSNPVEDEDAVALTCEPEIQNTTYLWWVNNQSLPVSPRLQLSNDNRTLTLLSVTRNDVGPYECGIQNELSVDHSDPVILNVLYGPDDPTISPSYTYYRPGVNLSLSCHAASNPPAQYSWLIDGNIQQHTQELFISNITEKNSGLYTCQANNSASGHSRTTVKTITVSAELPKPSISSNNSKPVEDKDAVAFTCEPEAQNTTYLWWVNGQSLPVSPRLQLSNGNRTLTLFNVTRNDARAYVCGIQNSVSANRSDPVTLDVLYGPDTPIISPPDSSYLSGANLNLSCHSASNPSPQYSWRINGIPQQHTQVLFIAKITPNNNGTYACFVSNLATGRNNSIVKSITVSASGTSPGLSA
Description: (§3) The affinity of CEA-V2122 for the antigen CEACAM5 was evaluated using a surface plasmon resonance (SPR) measuring device, Biacore T200 (GE Healthcare Life Sciences). Specifically, Recombinant Human CEACAM-5/CD66e Protein, CF (R & D SYSTEMS) was immobilized on Sensor Chip CM5 (GE Healthcare Life Sciences) using an amine-coupling kit (GE Healthcare Lite Sciences). The final amount of the ligand immobilized was 279 RU. Moreover, about the purified CEA-V2122, two-fold serial dilutions from 1E-08 to 6.25E-10 M were prepared as analytes. Regarding interaction analysis, data were obtained by single-cycle kinetics analysis.

CEACAM5 = molecular target: T2, CEACAM5 (Homo sapiens, UniProt P06731); assay: Cell staining of CEACAM5-expressing cell line using FITC-labeled CEA-V2122; format: cell-based
T2 construct: endogenous in cells; host or cells: MKN-45 (CEACAM5-positive); DLD1 (CEACAM5-negative control)
T2 sequence (P06731 35-685 limits assumed): T1 sequence (looked up)
Description: In order to stain a CEACAM5 expression-positive cancer cell line, FITC labeling was carried out on the cell line, using 100 μg of a purified CEA-V2122 protein. Specifically, labeling was carried out using Fluorescein Labeling Kit—NH2 (DOJINDO LABORATORIES) in accordance with the dosage and administration described in the operating manual included with the kit, and the obtained product was defined to be CEA-V2122-FITC. Specific staining of the CEACAM5 expression-positive cancer cell line is as follows. That is, CEACAM5-positive human stomach cancer-derived MKN-45 cells and CEACAM5-negative human colon cancer-derived DLD1 cells were each seeded on a CELLSTAR, μClear, 96-well plate (Greiner) to a cell density of 2.0×10^4 cells/well, and thereafter, the cells were cultured overnight. Subsequently, a culture solution containing 20 nM CEA-V2122-FITC and 1 μM Hoechist was added to the 96-well plate to a concentration of 100 μL/well, and the obtained mixture was then reacted at 4° C. for 30 minutes. Thereafter, each image was taken using In Cell Analyzer 6000 (GE Healthcare Life Sciences).

[4] = molecular target: T3, Recombinant Human CEACAM-5/CD66e Protein (Homo sapiens, UniProt P06731); assay: SPR (Biacore T200) affinity of CEA-V2122 for the antigen CEACAM5; format: binding
T3 construct: purchased R & D SYSTEMS
T3 sequence (P06731 35-676): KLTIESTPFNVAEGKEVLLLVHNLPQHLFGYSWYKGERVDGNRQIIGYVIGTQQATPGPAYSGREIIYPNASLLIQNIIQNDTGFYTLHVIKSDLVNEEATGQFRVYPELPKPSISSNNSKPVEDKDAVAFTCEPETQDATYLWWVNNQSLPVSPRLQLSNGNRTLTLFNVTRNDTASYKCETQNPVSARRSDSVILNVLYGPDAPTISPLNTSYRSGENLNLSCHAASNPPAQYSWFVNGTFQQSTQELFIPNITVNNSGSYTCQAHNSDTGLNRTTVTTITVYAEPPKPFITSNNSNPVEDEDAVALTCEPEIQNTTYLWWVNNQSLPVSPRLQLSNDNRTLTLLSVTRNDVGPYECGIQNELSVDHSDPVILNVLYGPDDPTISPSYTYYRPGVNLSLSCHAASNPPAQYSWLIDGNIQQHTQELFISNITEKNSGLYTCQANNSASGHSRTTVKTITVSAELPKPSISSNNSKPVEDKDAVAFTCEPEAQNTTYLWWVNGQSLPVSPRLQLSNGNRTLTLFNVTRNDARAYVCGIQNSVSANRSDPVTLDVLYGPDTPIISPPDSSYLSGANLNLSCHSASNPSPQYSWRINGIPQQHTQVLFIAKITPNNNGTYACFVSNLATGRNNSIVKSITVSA
Description: as §3, with “analysis. Using Biacore T200 Evaluation Software, version 2.0, the obtained data were subjected to curve fitting in a bivalent analysis mode, and the following values were obtained: ka1−3.208E+5, and kd1=3.461E-7.” for “analysis.”

[5] = CEACAM5 immobilized on Sensor Chip CM5 (279 RU), single-cycle kinetics, bivalent analysis mode

Molecule: COC(=O)c1cc2c([nH]1)C(=O)C=C1N(C(=O)c3cc4cc(OC)c(OCCNC(=O)[C@@H](NC(=O)[C@H](C)NC(=O)OCCOCCOCCn5cc(CCC(=O)NCCOCCOCCN(CC(=O)NCCCCNC(=O)CCCC[C@@H]6SC[C@@H]7NC(=N)N[C@@H]76)CC(=O)NCCCCNC(=O)CCCC[C@@H]6SC[C@@H]7NC(=N)N[C@@H]76)nn5)C(C)C)c(OC)c4[nH]3)C[C@H]3CC123 (stereo partly drawn) [Compound 5]
- cell growth ratio to control [1]: such a concentration-dependent effect of suppressing the cell growth of the CEACAM5-negative DLD1 cells was not confirmed
- cell growth ratio to control [2]: suppression of the cell growth of the CEACAM5-positive MKN45 cells was confirmed in a complex concentration-dependent manner

Molecule: Duocarmycin SA-Valine
- effect of suppressing cell growth (ratio of cell growth to control) (HeLa S3 cells): higher effect of suppressing cell growth than Duocarmycin SA

B1: CEA-V2122 (scFv)
chain: QVKLEQSGAEVVKPGASVKLSCKASGFNIKDSYMHWLRQGPGQRLEWIGWIDPENGDTEYAPKFQGKATFTTDTSANTAYLGLSSLRPEDTAVYYCNEGTPTGPYYFDYWGQGTLVTVSSGGGGSGGGGSGGGGSENVLTQSPSSMSVSVGDRVNIACSASSSVPYMHWLQQKPGKSPKLLIYLTSNLASGVPSRFSGSGSGTDYSLTISSVQPEDAATYYCQQRSSYPLTFGGGTKLEIKGGGGSGGGGAEAGITGTWSDQLGDTFIVTAGADGALTGTYENAVGGAESRYVLTGRYDSAPATDGSGTALGWTVAWKNNSKNAHSATTWSGQYVGGADAKINTQWLLTSGTTNANAWKSTLVGHDTFTKVKPSAASHHHHHH
notes: Fusion of an anti-CEACAM5 scFv with the mutant streptavidin V2122; also called scFv-V2122; CEA-V2122 fusion protein
- Kd [3]: 1.08 pM

B2: CEA-V2122-FITC: purified CEA-V2122 protein labeled using Fluorescein Labeling Kit—NH2 (protein)
chain: B1 chain
- stained cell images (recognition of CEACAM5) (CEACAM5; 20 nM CEA-V2122-FITC, 4° C. for 30 minutes, CEACAM5-positive MKN-45 vs CEACAM5-negative DLD1 cells, FIG. 5): specifically recognizes CEACAM5 on the surface of the cell membrane
- time-series stained MKN45 cell images (localisation after binding) (CEACAM5; MKN45 cells, time-series data, FIG. 6): the CEACAM5 stays on the surface of the cell membrane

B3: CEA-V2122: scFv-type anti-CEACAM5 antibody bound with mutant streptavidin V2122 via an amino acid linker (GGGGSGGGG), SEQ ID NO: 3 (protein)
chain: B1 chain
- ka1 [4, 5]: 3.208E+5
- kd1 [4, 5]: 3.461E-7
- KD=kd1/ka1 ([4]; bivalent analysis, KD=kd1/ka1): 1.078E−12
